Results on two molecules are retold here after US10568949B2, “Method of eliciting an anti-tumor immune response with controlled delivery of TLR agonists in porous polymerlc devices” (President and Fellows of Harvard College, priority 2008, dated 2020).

A value given as a limit tells only on which side of the number the result lay.

One data set has as its system IL-12p70. Nature of the data set: Example 7: cytokine concentrations at implant site. The format is in vivo, C57BL/6J mice. The following applies: with GM-CSF.
The test system of data set [1] is B16-F10 melanoma cells. Nature of the data set: Example 7: prophylactic vaccination, B16-F10 melanoma. Also noted: concentration or dose not given beside the values. The following applies: for survival rate: B16-F10 tumor lysates and GM-CSF, with or without TLR agonist, challenge at day 14. The class given is in vivo, C57BL/6J mice.
Data set [2] deals with IL-12p70, IFN-α, IFN-γ, and TGF-β. Nature of the data set: In vivo cytokine concentrations at matrix implant site (ELISA). Also noted: species or system C57BL/6J mice. How it is done:
After centrifugation, the concentrations of IL-12, IFN-α, IFN-γ, and TGF-β in the supernatant were then analyzed with enzyme-linked immunosorbent assay (R&D Systems) according to the manufacturer's instructions.

Another data set concerns host DCs. Nature of the data set: In vivo DC emigration from FITC painted scaffolds to inguinal lymph nodes. Further details: species or system C57BL/6J mice. As to conditions: mouse. How it is done:
Blank scaffolds and scaffolds containing GM-CSF with or without 10 μg PEI-ODN control (5′-tcc atg agc ttc ctg agc tt-3′) (SEQ ID NO: 6) or 10 μg PEI-CpG-ODN condensate loaded scaffolds were implanted into subcutaneous pockets on the back of 7-9 week old male C57BL/6J mice. For histological examination scaffolds were excised and fixed in Z-fix solution, embedded in paraffin, and stained with hematoxylin and eosin. To analyze DC recruitment, scaffolds were excised and the ingrown tissue was digested into single cell suspensions using a collagenase solution (Worthingtion, 250 U/ml) that was agitated at 37° C. for 45 minutes. The cell suspensions were then poured through a 40 μm cell strainer to isolate cells from scaffold particles and the cells were pelleted and washed with cold PBS and counted using a Z2 coulter counter (Beckman Coulter). The resultant cell populations were then stained with primary antibodies (BD Pharmingen, San Diego, Calif.) conjugated to fluorescent markers to allow for analysis by flow cytometry. […] Cells were gated according to positive FITC, APC and PE using isotype controls, and the percentage of cells staining positive for each surface antigen was recorded. […]

The next data set deals with B16-F10 tumors. Kind of data set: Example 7: tumor infiltrating leukocyte (TIL) characterization. Further details: species or system C57BL/6J mice. As to conditions: mouse, in vivo. Here is the method:
On the indicated days, B16-F10 tumors were removed from mice, and digested in 1 mg/mL collagenase II (250 U/ml) (Worthington, Lakewood, N.J.) and 0.1 mg/mL DNase for 1 hour at 37° C. Dissociated cells were filtered through a 40-μm filter, and directly stained with antibodies for phenotype characterization by fluorescence-activated cell sorting (FACS) analysis. APC-anti-CD8 and PE-Cy7-anti CD3 were used to identify T cells isolated from the B16F10 tumors. These TILs were also costained with FITC-anti-IFNγ, and PE-anti-CD107a. All antibodies were obtained from eBioscience, San Diego, Calif.

In the next data set the test system is TRP2-specific CTLs. Kind of data set: TRP2-specific CTLs in spleens (pentamer staining). The class given is in vivo, C57BL/6J mice. The following applies: GM-CSF, antigen. The source says:
[…] These cells were initially stained with APC-H-2Kb-TRP2 pentamers (Proimmune) and subsequently stained with PE-conjugated monoclonal antibody to CD8 (BD Pharmingen) before being analyzed by flow cytometry.

Data set [3] is described as follows: In vitro release / retention of GM-CSF, cytokines and TLR agonists from PLG scaffolds. The class given is physicochemical. How it is done:
To determine the incorporation efficiency of CpG-ODN incorporation, PLG scaffolds were prepared with 50 ug of CpG-ODN and digested in 1 ml of chloroform (Sigma Aldrich, and washed with 2 mls of aqueous buffer. The aqueous phase was isolated and the amount of CpG-ODN incorporated was determined by absorbance readings (260/280 and 260/230 ratios calculated at 0.2 mm pathlength) using a Nanodrop instrument, ND1000 (Nanodrop technologies, Wilmington, Del.). Similarly, to determine CpG-ODN release kinetics CpG-ODN loaded scaffolds were placed in 1 ml of Phosphate Buffer Solution (PBS) in an incubator (37° C.). At various timepoints, the PBS release media was collected and replaced with fresh media. The total amount of CpG-ODN incorporated into PLG scaffolds and released into PBS over time was analyzed and recorded.

The test system of data set [4] is B16-F10 melanoma cells. Kind of data set: Example 8: therapeutic vaccination, B16-F10 melanoma. The class given is in vivo, C57BL/6J mice. As to conditions: vaccinated three days after tumor challenge.
Method: PLG scaffolds containing B16-F10 melanoma tumor lysates, 100 μg CpG-ODN in combination with 3 μg GM-CSF, Flt3L or CCL20 were implanted subcutaneously into the lower left flank of C57BL/6J mice to act as cancer vaccines. To assess PLG vaccine efficacy in the therapeutic setting, C57/BL6J mice were challenged with a subcutaneous injection of 5×10^5 B16-F10 melanoma cells (ATCC, Manassas, N.J.) in the back of the neck, and 3 days after tumor challenge PLG vaccines were implanted subcutaneously into the lower left flank. Animals were monitored for the onset of tumor growth (approximately 1 mm^3) and sacrificed for humane reasons when tumors grew to 20-25 mm (longest diameter).
The subject of the next data set is dendritic cells. Kind of data set: Example 8: DC recruitment and activation in cytokine loaded PLG matrices (FACS, day 7). The class given is in vivo, C57BL/6J mice. Here is the method:
To analyze DC recruitment by FACS analysis, scaffolds were excised and the ingrown tissue was digested into single cell suspensions using a collagenase solution (Worthingtion, 250 U/ml) that was agitated at 37° C. for 45 minutes. The cell suspensions were then poured through a 40 μm cell strainer to isolate cells from scaffold particles and the cells were pelleted and washed with cold PBS and counted using a Z2 coulter counter (Beckman Coulter). To assess, DC infiltration and activation, subsets of the total cell population isolated from PLG matrices were then stained with primary antibodies (BD Pharmingen, San Diego, Calif.) conjugated to fluorescent markers to allow for analysis by flow cytometry. APC-conjugated CD11c (dendritic cell marker), FITC-conjugated MHCII and PE-conjugated CD86 (B7, costimulatory molecule) stains were conducted for DC recruitment and activation analysis. To delineate the presence of the plasmacytoid DC subset, cells were also stained with APC-conjugated CD11c and PE-conjugated PDCA-1 (plasmacytoid DC marker). Cells were gated according to single positive FITC, APC and PE stainings using isotype controls. The percentage of cells staining positive for each surface antigen was recorded.

As for CpG-ODN 1826, in the data set on IL-12p70, the “effect on IFN-α concentration at vaccine site” value was “elevated levels”. Further, the survival rate with B16-F10 melanoma cells [1] came to 90%. The molecule also registered a long-term survival in the data set on B16-F10 melanoma cells [1] (wildtype mice, CpG-ODN loaded PLG vaccines) of 100%. Also, in data set [2] (high doses of CpG-ODN), the local production of IFN-α was ~1010 pg/mL and the local production of IL-12 amounted to 150 pg/mL. The “increase in number of DCs recruited to matrices and subsequently dispersed to the lymph nodes” value in the data set on host DCs came out at 6 fold. In the data set with B16-F10 tumors, the “increase in IFNγ(+), CD107a(+) TILs in comparison to controls” value is “approximately 6.1 fold”. For the same molecule, the “TRP2-specific CD8 T cells” value in the data set with TRP2-specific CTLs (CpG dose 50 μg) was 0.3 % splenocytes. For the same molecule, the “retained in the PLG matrices” value in data set [3] (over 25 days) is given as > 80%.

B1: granulocyte macrophage colony stimulating factor (protein, UniProt P01587 18-141, looked up)
Granulocyte-macrophage …: APTRSPITVTRPWKHVEAIKEALNLLDDMPVTLNEEVEVVSNEFSFKKLTCVQTRLKIFEQGLRGNFTKLKGALNMTASYYQTYCPPTPETDCETQVTTYADFIDSLKTFLTDIPFECKKPGQK
notes: cytokine encapsulated in and released from PLG matrices to recruit DCs
In the data set with B16-F10 melanoma cells [1], B1 returned a survival rate of 10%. In data set [2] (GM-CSF and tumor lysate in matrix), the “factor of increase in TGFβ concentrations at vaccine site” value was 10. The molecule further yielded a long-term survival rate in the data set with B16-F10 melanoma cells [4] of 88%. Further, the “TRP2-specific CD8 T cells” value in the data set with TRP2-specific CTLs (CpG dose 0 μg) is given as 0.2 % splenocytes. Further, in data set [3] (by day 4, in vitro), the “incorporated cytokine released from scaffolds” value is given as “approximately 43%”. In addition, the “GM-CSF protein released from PLG matrices” value in data set [3] (by day 10, in vitro) was “approximately 60%”. For the same molecule, the “daily release of protein” value in data set [3] (over the next 23 days after day 4) is on record as “approximately 0.9%”. Also, the “bioactive GM-CSF load released from PLG matrices” value in data set [3] (within the first 5 days) is recorded as “approximately 60%”. Moreover, the “DC recruitment relative to blank PLG matrices” value in the data set with dendritic cells (day 7) is given as > 5 fold. In the data set on dendritic cells (in combination with CpG-ODN), the “MHCII(+) and CD86(+) DCs of total DCs recruited” value is reported as 54-66%; the “increase in total number of activated DCs relative to control matrices devoid of cytokines” value is given as “Approximately 8 fold”; the “resident CD11c(+)PDCA-1(+) pDCs” value is given as “approximately 110,000”.
